Our source for the Kd values is paper PMC4921775, “Transient Fcho1/2⋅Eps15/R⋅AP-2 Nanoclusters Prime the AP-2 Clathrin Adaptor for Cargo Binding” (Developmental Cell, 2016).

B1: FCHO1 μHD (purified, not on beads) [human] / EPS15 616–638 peptide [human] (parent complex)
chain 1: HGVSRGPSPVVLGSQDALPIATAFTEYVHAYFRGHSPSCLARVTGELTMTFPAGIVRVFSGTPPPPVLSFRLVHTTAIEHFQPNADLLFSDPSQSDPETKDFWLNMAALTEALQRQAEQNPTASYYNVVLLRYQFSRPGPQSVPLQLSAHWQCGATLTQVSVEYGYRPGATAVPTPLTNVQILLPVGEPVTNVRLQPAATWNLEEKRLTWRLPDVSEAGGSGRLSASWEPLSGPSTPSPVAAQFTSEGTTLSGVDLELVGSGYRMSLVKRRFATGMYLVSC
chain 2: NLDFFQSDPFVGSDPFKDDPFGK

The variants in this experiment derive from B1. Briefly: ITC; parent: 2.7e+03 nM. For orientation: ITC needs no label: the signal is the heat of the interaction.
Broadly, the Kd is the free concentration of one partner at which half of the binding sites on the other are occupied at equilibrium, for simple one-to-one binding. On to chain 1 S124D, for which the Kd was 9.1 µM.

With chain 1 R264M, the Kd was found to be 19.6 µM.

With chain 1 R264A, chain 1 S266G, the Kd worked out at 77.4 µM.
